The values that follow come from a protein production outcome set (Wang et al. 2014).
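Note: failed if final PepcDB status was selected cloned or expressed and not failed if soluble or beyond.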

This data set is described as follows: label from the status in PepcDB records.
In the case of “MTFRNCVAVDLGASSGRVMLARYERECRSLTLREIHRFNNGLHSQNGYVTWDVDSLESAIRLGLNKVCEEGIRIDSIGIDTWGVDFVLLDQQGQRVGLPVAYRDSRTNGLMAQAQQQLGKRDIYQRSGIQFLPFNTLYQLRALTEQQPELIPHIAHALLMPDYFSYRLTGKMNWEYTNATTTQLVNINSDDWDESLLAWSGANKAWFGRPTHPGNVIGHWICPQGNEIPVVAVASHDTASAVIASPLNGSRAAYLSSGTWSLMGFESQTPFTNDTALAANITNEGGAEGRYRVLKNIMGLWLLQRVLQERQINDLPALISATQALPACRFIINPNDBRFINPETMCSEIQAACRETAQPIPESDAELARCIFDSLALLYADVLHELAQLRGEDFSQLHIVGGGCQNTLLNQLCADACGIRVIAGPVEASTLGNIGIQLMTLDELNNVDDFRQVVSTTANLTTFTPNPDSEIAHYVARIHSTRQTKELCA”, the protein production entry was “not failed”.
With “MNVLALDTSQRIRIGLRKGEDLFEISYTGEKKHAEILPVVVKKLLDELDLKVKDLDVVGVGIGPGGLTGLRVGIATVVGLVSPYDIPVAPLNSFEMTAKSCPADGVVLVARRARKGYHYCAVYLKDKGLNPLKEPSVVSDEELEEITKEFSPKIVLKDDLLISPAVLVEESERLFREKKTIHYYEIEPLYLQKSIAELNWEKKKRG”, the protein production entry was “not failed”.
Consider “MVSGKVLKEPASGFMFMDTLDRGVKGYAGGWLVRGKRYNCIVETGAGAAVPLWLAGLKQAGIPLESIRWILLTHVHLDHAGGAGELLRHLPNARIGIHPLGVRHILDPQRLLSHAKVVWEKDFDLLGPMLPAPAERVVELGDGEIIEIDDVRRIKVLYTPGHTSHHVAFFEESTRGVFSGDALGAFFRGKHPFGEYVSMPGVSPPKGDIPAYVQSVERIAKLSPRRIYATHFGLWEPAMPYILSATSQIITISDLCRDVFYGGGGLQDFLSRAATLLASVRQSTRGQVELEKNYFSMAKAVWNYVVAEKGGESSPG”, for which the protein production entry is “failed”.
Consider “MIEYRIFRFPMYPLLARFFSSHQQALGVLFALLSAIGFSAKAIFIKLAYVEPVDAVTLLALRMVFSVPFFVFAMLHGRAQATPMARHDWLAVLLLGLVGYYLASFLDFLGLQYISAGLERMILFLYPTMVVLISALVFRAAIGRRVWFALLLSYVGIGLVFVHDFHITSDGLFMGSSLVFASALAYAIYLIGAGHTIARIGSMRFTAYAMTVACLACIAQFLLTHPLDDLQQSTRVYGLSIGMALFSTVMPAFALAAAMRRIGSMQTSMIGALGPVATIYLAYVFLAEQLSLTQLAGSGLVLIGVMMISMRKME”, for which the protein production entry was “failed”.
For the sequence “MTPQFRALLVHLFTATGAVFAMLAMLAAVDAKWDLMFLWLVVAFFVDGLDGPMARRYHVKTYAPEFDGVLLDLIIDYLTYVFIPAFALFKSGLMDGWTGWLAIIIITFASAMYFADTRMKTKDNSFSGFPGCWNMVVLVIFALEPNFWVSLVLVTVLAVSMFLPLKFVHPVRTERWRAITLPMALAWTFFAGWAAWVGFHPESWAHWGLVVTSLYLIFAGIAQMVIPEKDTASPF”, the protein production entry is on record as “failed”.
As to “MERLTRWLLVMMAMLLAASGLVWFYNSNHLPVKQVSLKGNLVYSDKKTLGSLAKEYIHGNILRTDINGAQEAYRRYPWIASVMVRRRFPDTVEVVLTERKPVARWGDHALVDGEGNVFEARLDRPGMPVFRGAEGTSAEMLRRYDEFSTVLAKQGLGIKEMTYTARSAWIVVLDNGITVRLGRENEMKRLRLFTEAWQHLLRKNKNRLSYVDMRYKDGFSVRYASDGLPEKESEE”, the protein production result was “failed”.
As for “MGSKNESTASKASGTASEKKKIEYLDKTYEVTVPTDKIAITGSVESMEDAKLLDVHPQGAISFSGKFPDMFKDITDKAEPTGEKMEPNIEKILEMKPDVILASTKFPEKTLQKISTAGTTIPVSHISSNWKENMMLLAQLTGKEKKAKKIIADYEQDLKEIKTKINDKAKDSKALVIRIRQGNIYIYPEQVYFNSTLYGDLGLKAPNEVKAAKAQELSSLEKLSEMNPDHIFVQFSDDENADKPDALKDLEKNPIWKSLKAVKEDHVYVNSVDPLAQGGTAWSKVRFLKAAAEKLTQNLEHHHHHH”, the protein production entry is “not failed”.
Regarding “MNDHTAAIAAHFDQLAPNLDRWRRRNRTYYRDLEKLHRFWIPTGSRVLQVGSGLGDLLATVEPSFGIGIDVSPQAVAIAQQRHPQLQFHCLAAEELTPEAIGNPEPFDAIILTGVLSYLTDIQVVLEQLQAFCHPRTRLILGFHNFLWQPLLTAAEKVGQRSPQPPESWLGMQDVLNLLTLTGYEPIKQGRRFLLPRQIPLLTGWINRWISPLPVIEHLALTNYVIARPLAQPRSQPTVSVIVPARNEAGNIAAAVERLPELGAETELIFVEGHSRDQTWETIEQTVAEYQGPLKLLACRQTGKGKADAVRLGFDKASGDILMILDADLTVQPEDLGHFYRAIASGRGEFINGSRLVYPRSRLAMPGLNTLANRTFALIFSFLLGQPLKDTLCGTKVLWKTDYDRVAAGRKYFGDFDPFGDFDLLFGAAKLGLEIVEVPVRYQERSYGSSNIAHVREGLILARMCLYAAGKLKFPH”, the protein production entry was “failed”.
On to “MLRYHMQGFSGYGVQYSPFFDNRLAVAAGSNFGLVGNGKLFILEIDRSGRIVEVNSFLTQDCLFDLAWNESHENQVLVAQGDGTLRLFDTTFKEFPIAIFKEHEREVFSCNWNLVNRQNFLSSSWDGSIKIWSPLRKQSLMTLTPRPLEITKMVDPLNAIILKKKSFTGISKNRNCVYQAQFSPHDQNLVLSCSGNSYASLFDIRLPSGKNQNNFLVHSGLEALTCDFNKYRPYVVATGGVDNAIRIWDIRMLNKNESATIKRTVPGQLHNSSCINEIPNAHGLAIRKVTWSPHHSNILMSASYDMTCRIWRDLSNDGAKETYKTNSTDATKGSIFNFTQHSEFVFGADWSLWGKPGYVASTAWDGNLFVWNGLG”, for which the protein production entry is reported as “failed”.
As for “MSQWITEWIPQVMNQLGYGGISLLMFLENLFPPIPSELIMPLAGFAVAQGKLELFPAIVAGIIGTILGAYPWYYIGKWVSEERLEQLADRYGKWIGLDAKDIHKSNVWFGRYGHQSVFFGRLVPGIRTIVSLPAGVNAMGLISFTLYSLGGISLWVTFLASAGYKLGDHYELVEQYLGPVSKIVLVSIVAILVLLIVRKQLRRRA”, the protein production entry is on record as “failed”.
The result for “MTLPAPWRVRHLPLLLLLLAAPLLALANSDPLPSWKDGPSKQGILAFVQAVTTQGSPDYVKAAERIAVFDNDGTLWSEQPAYFEVLFAFDEIKRLAPQHPEWKTRQPFQAVLEGDHQALAASGMHGLLQIIGATHTGISSEAFIDNARRWLAEARHPKTGRPFNQMIYQPMLEMLDYLRSQDFKTYIVSGGDTAFMRAFAESAYGIPPEQVIGSNFVTQWQFQDGQPSILRTAKLAHNDDGPGKPESIDGIIGRRPLLAFGNSDGDLQMLQWTAAGSGKRFMALVHHTDAAREWAYDRKSQVGRLDQALDQAQQHGWTLVDMAAEWRRIYPFEPLAPEQAQ” reads “failed”.
For the sequence “MAYDSRLPEQRDPATDPSANYDYQGDSVNRPDLVSALEQRVDGDVRFDTYTRELFATDASAYEQLPIGVVSPVSTEDVVAVMEYCAAEDIPVLPRGGGTSLAGQAVNEAVVLDFKRYMDE”, the protein production entry is on record as “not failed”.
As to “MSIPNHVSTTEVVLLELEILLTIISIGAWGGFVSYLLRKDKTEYNSSHESIKYCLTQIVISCFTSFLLSAIAIEKECSFNIVLLAAGLGGVFASPILKILGRRIKKIIEGNNSD”, the protein production entry is given as “failed”.
Regarding “MFPQRSSELYRTPVTHQPPPALELAGNLEYPNLNIADLNARLENLSPRLHDCWDSIAINDHNHLALATNRREGRQWWGMLFGYGRDQMHHMSVDSANFKLQAEHTVNIVRYAEDDFLLVALGDTRLQAWSTYSKVRDSQSPYCLFLVGESSAHPTPISQLSVFKADPRTAVSGSADSTLNVWDLSGADMVSTYRSRSSHTDKLTGLATPAASVDKFVTCDRGGCARLWDVRAAAPSSTCLYADASHVLSFTSAAWAAASELQGDNHIYLGDYDGKVHTLDIRVPRKLAETREYFDKGHVAQLLINGPHLAAMSNLPASVKVANVQAGHEFIYTHQDTHSRLTDAVWTDDSTLITIGHGRKMVTHAIK”, the protein production result was “failed”.
As to “MKSLLMRTGSMPVLQNRLISGGSSRKMTPISRTNSVESLSSYGERFAGGKISIEVKANVGMRRVLSESDVIRSERMLKRVGSKPSPARIPEDDEAGEEEIRFADGWGSMISGGLPVEEKCFTGGGVGGGSGYSGGYGNGGGGGYEDKSKIGDYYREMLRSNPNNSLLLMNYGKFLYEVEKDAEGAEEYYGRAILENPGDGEALSMYGRLIWETKRDEKRAQGYFDQAVNASPNDCMVLGSYARFMWEAEDDDDDDEEEEEEEWMAASPLMVSAV”, the protein production entry was “failed”.
“MNHSNLTILSVCSNFVIVVLKLIVGFFTGSVAVISEGIHSSMDLFASIITFFSIRISNQPADEDHPYGHGKAENIAGTIETLLIFVAGIWIIVESVNKLVNPHEIRFPALGIMVMLFGAIVNIIVSRIIKKAADEANSVAMKSNALHLYTDVFTSLGIALSLFLVYITGWLWLDPVIAILTAFYIMYEAYKLLKESFPPLMDKRLSADEEEAIKQIILAHKTRFIEFHDFRSRRAGAEEYIDFHLVVSSSMTIESAHSLCDEIEAEIMNFYAKAEVLIHLEPEEERVLTRI”: the protein production entry was “failed”.
For “MRTLRSLMLAAALAVALAVTGFAASPLPSAYAKYAAGPTKILPLQRAFPLDELVELSELRARDRVRHARILLGGGRQSSVGGVVDFPVQGSSDPYLVGLYFTKVKLGSPPTEFNVQIDTGSDILWVTCSSCSNCPHSSGLGIDLHFFDAPGSLTAGSVTCSDPICSSVFQTTAAQCSENNQCGYSFRYGDGSGTSGYYMTDTFYFDAILGESLVANSSAPIVFGCSTYQSGDLTKSDKAVDGIFGFGKGKLSVVSQLSSRGITPPVFSHCLKGDGSGGGVFVLGEILVPGMVYSPLVPSQPHYNLNLLSIGVNGQMLPLDAAVFEASNTRGTIVDTGTTLTYLVKEAYDLFLNAISNSVSQLVTPIISNGEQCYLVSTSISDMFPSVSLNFAGGASMMLRPQDYLFHYGIYDGASMWCIGFQKAPEEQTILGDLVLKDKVFVYDLARQRIGWASYDCKCNHRVMSYRKL”, the protein production entry is recorded as “failed”.
With “MIKSKGDVNILLNFRHNINGEDLIIAVAQDHETGEVLMVAYMNREALRRTLETGTAHYWSTSRGKLWLKGESSGHVQRVKDVLVDCDGDAVVLKVEQEGGACHTGYRSCFYRSIDGDELKVREDAVKVFDPEEIYGDG”, the protein production result is recorded as “not failed”.
Consider “MITNQRIARLNAWGAHGFTATGVVLAFLATIALFNNEPKACLLWLGAALIVDGVDGSLARKVNTTSVLPHFDGSVLDLVIDYLTYVFIPALFIYRYIPVPDYTLLLSVSVILVSSLFCFCNVDMKSKDNYFQGFPAAWNVVALCLYILSPAPWLTFITIIALALLTMTRMKFLHPFRVRRFMPLNIAVTTVWLLASALLIINHPHNGPLVMGLWLAMSAYFLGICIWRTSLEWLGRLKA”, for which the protein production entry is given as “failed”.
In the case of “MNPIEFWFDFSSGYAFFAAQRIEALAAELGRTVLWRPYMLGAAFSVTGARGLSSTPLKRDYAQRDWARIARQRGLTFRPPADHPHVALAATRAFYWIEAQSPDAATAFAQRVFDLYFSDRLDTASPEAVSRLGPEVGLEPEALLAGIADPALKETVRKIGEDAVARGIFGSPFFLVDDEPFWGWDRMEMMAEWIRTGGW” it was “not failed”; in that of “MVSNSSITFKEFVDYWFEAYASTAVKPSTQKRYRQLLKPALRAIGNKPLNKVKPLDIQNIYIALAGTQSNCTILKLHRLLHEIFKHAQMWEYISDNPVKKVVPPTPEKKVFDLEHHHHHH”, “failed”.
On to “MASNRGAGGSLYGGADPYRSREGLSTRNASGSEEIQLRIDPMHSDLDDEILGLHGQIAQEIGSEAKSQRDFLDELQMTLIRAQAGVKNNIRKLNLSIIRSGNNHIMHVVLFALLLFFILYMWSKMFKR”, for which the protein production result is “failed”.
